According to PMC9732051, “Divergent self-association properties of paralogous proteins TRIM2 and TRIM3 regulate their E3 ligase activity” (Nature Communications, 2022):

What was measured:
[1] = target: T1, 15N-labelled UBE2D3 (C85S) (UniProt P61077 1-147, mutation of the catalytic cysteine (C85) to serine); assay: NMR titration; 1H-15N HSQC of 200 µM 15N-UBE2D3 (C85S) titrated with unlabelled RING (0 to 2 molar equivalents); 298 K; 25 mM Na-phosphate pH 7.0, 150 mM NaCl; Kd from fits of chemical shift changes; conditions: both partners purified
T1 construct: UBE2D3 with the catalytic cysteine (C85) mutated to serine; Uniformly 15N-enriched; source: bacteria grown in M9 minimal medium with 15N-ammonium chloride
T1 sequence (P61077 whole entry C85S): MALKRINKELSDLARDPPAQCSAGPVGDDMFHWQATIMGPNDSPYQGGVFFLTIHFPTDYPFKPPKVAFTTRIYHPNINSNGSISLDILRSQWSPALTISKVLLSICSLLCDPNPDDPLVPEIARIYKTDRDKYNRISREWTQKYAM

[2] = target: the molecule itself; assay: SEC-MALLS; Superdex 75 or 200 10/300 GL Increase; 20 mM HEPES pH 7.5, 150 mM NaCl, 0.5 mM TCEP, 3 mM NaN3; 25 °C; 100 μl samples at multiple concentrations (5, 3, 2 and 1 mg/ml in Fig. 1b)
[3] = target: 15N-labelled UBE2D3 (C85S) (UniProt P61077 1-147, mutation of the catalytic cysteine (C85) to serine); assay: NMR; residue K101
Target sequence in this assay (P61077 whole entry C85S): as above

| Binder | Kd [1] [µM] | stoichiometry N [2] | also measured |
| --- | --- | --- | --- |
| human TRIM2 RING (2-95) (domain or fragment, UniProt Q9C040 2-95, looked up, human TRIM2, RING construct, residues 2-95; likely on this pET49b construct too; also called T2R; RING1; source: E. coli BL21 (DE3), purified (Ni-NTA, His6 cleaved by HRV 3C, SEC); not shown: His6, N-terminal, cleaved) ASEGTNIPSPVVRQIDKQFLICSICLERYKNPKVLPCLHTFCERCLQNYIPAHSLTLSCPVCRQTSILPEKGVAALQNNFFITNLMDVLQRTPG | ~590 | 2 | Kd [3]: 643 µM |
| human TRIM3 RING (2-95) (domain or fragment, tripeptide Gly-Pro-Gly left at the N-terminus by 3C protease cleavage; human TRIM3, RING construct, residues 2-95; also called T3R; source: E. coli BL21 (DE3), purified (Ni-NTA, His6 cleaved by HRV 3C, SEC); not shown: His6, N-terminal, cleaved) GPGAKREDSPGPEVQPMDKQFLVCSICLDRYQCPKVLPCLHTFCERCLQNYIPAQSLTLSCPVCRQTSILPEQGVSALQNNFFISSLMEAMQQAPDG | ~300 |  |  |
| human TRIM2 RING-B-box2 (2-156) (domain or fragment, UniProt Q9C040 2-156, looked up, human TRIM2, RB2 construct, residues 2-156; also called TRIM2 RB2; source: E. coli BL21 (DE3), purified (Ni-NTA, His6 cleaved by HRV 3C, SEC); not shown: His6, N-terminal, cleaved) ASEGTNIPSPVVRQIDKQFLICSICLERYKNPKVLPCLHTFCERCLQNYIPAHSLTLSCPVCRQTSILPEKGVAALQNNFFITNLMDVLQRTPGSNAEESSILETVTAVAAGKPLSCPNHDGNVMEFYCQSCETAMCRECTEGEHAEHPTVPLKD |  | 2 |  |
| human TRIM2 tripartite motif RBCC (2-316) (domain or fragment, UniProt Q9C040 2-316, looked up, human TRIM2, RBCC construct, residues 2-316; also called TRIM2 RBCC; source: E. coli BL21 (DE3), purified (Ni-NTA, His6 cleaved by HRV 3C, SEC); not shown: His6, N-terminal, cleaved) ASEGTNIPSPVVRQIDKQFLICSICLERYKNPKVLPCLHTFCERCLQNYIPAHSLTLSCPVCRQTSILPEKGVAALQNNFFITNLMDVLQRTPGSNAEESSILETVTAVAAGKPLSCPNHDGNVMEFYCQSCETAMCRECTEGEHAEHPTVPLKDVVEQHKASLQVQLDAVNKRLPEIDSALQFISEIIHQLTNQKASIVDDIHSTFDELQKTLNVRKSVLLMELEVNYGLKHKVLQSQLDTLLQGQESIKSCSNFTAQALNHGTETEVLLVKKQMSEKLNELADQDFPLHPRENDQLDFIVETEGLKKSIHNLG |  | 4 |  |
| human TRIM3 tripartite motif RBCC (2-313) (domain or fragment, UniProt O75382 2-313, looked up, human TRIM3, RBCC construct, residues 2-313; also called TRIM3 RBCC; source: E. coli BL21 (DE3), purified (Ni-NTA, His6 cleaved by HRV 3C, SEC); not shown: His6, N-terminal, cleaved) AKREDSPGPEVQPMDKQFLVCSICLDRYQCPKVLPCLHTFCERCLQNYIPAQSLTLSCPVCRQTSILPEQGVSALQNNFFISSLMEAMQQAPDGAHDPEDPHPLSVVAGRPLSCPNHEGKTMEFYCEACETAMCGECRAGEHREHGTVLLRDVVEQHKAALQRQLEAVRGRLPQLSAAIALVGGISQQLQERKAEALAQISAAFEDLEQALQQRKQALVSDLETICGAKQKVLQSQLDTLRQGQEHIGSSCSFAEQALRLGSAPEVLLVRKHMRERLAALAAQAFPERPHENAQLELVLEVDGLRRSVLNLG |  | 2 |  |
| chimera of the TRIM2 N- and C-terminal α-helices (2-16/84-95) and the TRIM3 core RING (16-82) (other, human, UniProt Q9C040 2-16, looked up, human TRIM2, N-terminal α-helix, residues 2-16; human TRIM3, core RING domain, residues 16-82; human TRIM2, C-terminal α-helix, residues 84-95; also called T2αs-T3Rcore; T2Rαs-T3Rcore; source: E. coli BL21 (DE3), purified (Ni-NTA, His6 cleaved by HRV 3C, SEC); not shown: His6, N-terminal, cleaved) ASEGTNIPSPVVRQIDKQFLVCSICLDRYQCPKVLPCLHTFCERCLQNYIPAQSLTLSCPVCRQTSILPEQGVSALQNNFFITNLMDVLQRTPG |  |  | binding result [2]: binds |
